The text below walks through data of patent US20090202556A1 (Kyowa Kirin, published 2009).

Experiment [1] concerns the target T1, CLDN6-myc/His (fusion protein in which myc/His was added to the C-terminal of human CLDN6), expressed in CHO … (human, UniProt P56747 1-220).
T1 chain: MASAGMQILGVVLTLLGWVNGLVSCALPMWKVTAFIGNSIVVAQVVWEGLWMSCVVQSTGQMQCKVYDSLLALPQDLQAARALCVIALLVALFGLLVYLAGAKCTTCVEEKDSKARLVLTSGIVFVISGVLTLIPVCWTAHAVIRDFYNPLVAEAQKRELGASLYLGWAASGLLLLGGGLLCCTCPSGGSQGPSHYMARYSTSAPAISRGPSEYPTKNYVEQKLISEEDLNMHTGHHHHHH
The experiment can be described thus: FCM on live CLDN6/CHO cells. The protocol: (§1) Each of CLDN3/CHO, CLDN4/CHO, CLDN5/CHO, CLDN6/CHO and CLDN9/CHO was cultured for 3 to 4 days and peeled off using 0.02% EDTA solution (manufactured by Nacalai Tesque), and the recovered cells were washed with PBS and, in order to avoid nonspecific adsorption of antibodies, blocked at ice temperature for 30 minutes. The cells were dispensed at 1 to 5×10⁵ cells/100 μl BSA-PBS into a 96-well U bottom plate and centrifuged (1,500 rpm, 5 minutes), the supernatant was removed and then a mouse anti-serum to be immunized, a culture supernatant of hybridoma KM3900 (8.6 μg/ml), anti-CLDN4 monoclonal antibodies KM3900 and KM3907 diluted to 5 μg/ml and a mouse IgG2a isotype control (manufactured by DAKO) were dispensed as the primary antibodies at 100 μl/well and allowed to react at ice temperature for 60 minutes. After the reaction and then washing with BSA-PBS once, FITC-labeled anti-mouse immunoglobulin G (H+L) (manufactured by DAKO) diluted 50-fold with BSA-PBS was added thereto as the secondary antibody at 100 μl/well and allowed to react at ice temperature for 30 minutes under shading. After washing again once with BSA-PBS and subsequently suspending in PBS, the fluorescent intensity was measured by FCM (manufactured by Beckman Coulter).

In experiment [2] the target is T2, 6-EL1/4-EL2 (CLDN4-CLDN6 fusion protein: EL1 of CLDN6, EL2 of CLDN4, myc/His at the C-terminal side), … (human).
T2 chain: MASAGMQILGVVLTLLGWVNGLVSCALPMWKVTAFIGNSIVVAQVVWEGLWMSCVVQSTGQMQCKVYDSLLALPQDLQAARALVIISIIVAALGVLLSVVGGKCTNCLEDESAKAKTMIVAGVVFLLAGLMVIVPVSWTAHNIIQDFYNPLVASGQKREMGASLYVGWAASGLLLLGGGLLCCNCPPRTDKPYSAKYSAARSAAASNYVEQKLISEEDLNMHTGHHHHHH
In words: FCM on live 6-EL1/4-EL2/CHO cells.

Experiment [3] concerns the target T3, CLDN3-myc/His (fusion protein in which myc/His was added to the C-terminal of human CLDN3), expressed in CHO … (human, UniProt O15551 1-220).
T3 construct: also called CLDN3-myc/His gene-introduced CHO cell; not shown: C-terminal myc/His tag
T3 sequence: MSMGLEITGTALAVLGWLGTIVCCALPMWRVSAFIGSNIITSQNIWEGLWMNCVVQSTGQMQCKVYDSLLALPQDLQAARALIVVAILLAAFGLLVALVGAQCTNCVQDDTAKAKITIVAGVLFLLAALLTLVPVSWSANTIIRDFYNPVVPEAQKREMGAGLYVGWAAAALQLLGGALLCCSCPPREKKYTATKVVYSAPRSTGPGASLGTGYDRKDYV
The experiment can be described thus: FCM on live CLDN3/CHO cells. The protocol:
as §1

Experiment [4] concerns the target T4, CLDN4-myc/His (fusion protein in which myc/His was added to the C-terminal of human CLDN4), expressed in CHO … (human, UniProt O14493 1-209).
T4 construct: On live cells in FCM; as cell extract in Western blotting (denatured) and immunoprecipitation (Triton X-100 lysate); also called CLDN4-myc/His gene-introduced CHO cell
T4 sequence: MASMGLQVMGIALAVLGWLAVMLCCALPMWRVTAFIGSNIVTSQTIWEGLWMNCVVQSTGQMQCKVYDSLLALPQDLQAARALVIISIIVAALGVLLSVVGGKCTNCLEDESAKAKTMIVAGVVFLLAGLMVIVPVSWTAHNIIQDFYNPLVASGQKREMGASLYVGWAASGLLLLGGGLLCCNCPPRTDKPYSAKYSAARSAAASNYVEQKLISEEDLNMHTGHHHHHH
In words: FCM on live CLDN4/CHO cells. The protocol:
as §1

Experiment [5] addresses T5, CLDN9-myc/His (fusion protein in which myc/His was added to the C-terminal of human CLDN9), expressed in CHO … (human, UniProt O95484 1-217).
T5 sequence: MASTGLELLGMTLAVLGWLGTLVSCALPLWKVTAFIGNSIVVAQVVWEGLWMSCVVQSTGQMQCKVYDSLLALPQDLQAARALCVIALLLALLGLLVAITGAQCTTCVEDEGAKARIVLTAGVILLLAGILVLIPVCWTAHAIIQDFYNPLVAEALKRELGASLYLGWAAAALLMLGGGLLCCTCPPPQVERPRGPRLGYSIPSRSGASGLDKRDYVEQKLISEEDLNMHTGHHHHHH
The experiment can be described thus: FCM on live CLDN9/CHO cells. As to the method: as §1

Experiment [6] concerns the target T6, CLDN5-myc/His (fusion protein in which myc/His was added to the C-terminal of human CLDN5), expressed in CHO … (human, UniProt O00501 1-218).
T6 sequence: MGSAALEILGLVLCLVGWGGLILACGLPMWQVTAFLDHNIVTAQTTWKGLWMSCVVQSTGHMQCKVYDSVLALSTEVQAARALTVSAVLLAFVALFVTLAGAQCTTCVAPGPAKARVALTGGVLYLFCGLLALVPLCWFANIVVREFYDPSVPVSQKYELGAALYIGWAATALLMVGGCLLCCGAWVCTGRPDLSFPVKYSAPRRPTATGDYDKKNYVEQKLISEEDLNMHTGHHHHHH
In words: FCM on live CLDN5/CHO cells. The protocol: as §1

Experiment [7] addresses T7, 4-EL1/6-EL2 (CLDN4-CLDN6 fusion protein: EL1 of CLDN4, EL2 of CLDN6, myc/His at the C-terminal side), … (human).
T7 chain: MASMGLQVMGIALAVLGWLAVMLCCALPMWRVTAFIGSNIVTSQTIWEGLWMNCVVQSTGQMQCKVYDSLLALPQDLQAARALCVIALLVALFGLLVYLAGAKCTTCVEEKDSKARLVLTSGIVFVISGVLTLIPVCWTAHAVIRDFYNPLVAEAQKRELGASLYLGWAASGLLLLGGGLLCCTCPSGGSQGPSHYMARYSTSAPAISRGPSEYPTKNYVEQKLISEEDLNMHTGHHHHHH
The experiment can be described thus: FCM on live 4-EL1/6-EL2/CHO cells.

B1: anti-CLDN4 monoclonal antibody KM3900 produced by hybridoma KM3900 (FERM BP-10751) (antibody, V domains shown)
VH: EVQLQQSGPELVKPGASVKISCKASGYTFTDYYMNWVKQSHGKSLEWIGDVVPNNGVPTYNQKFKGKATLTVDKSSSTAYMELRSLTSEDSAVYYCARPHYYYAGRSGAMDYWGQGTSVTVSS
VL: QIVLTQSPAIMSASLGERVTMTCTASSTVSSTYLHWYQQKPGSSPKLWIYSTSNLASGVPARFSGSGSGTSYSLTISSMEAEDAATYYCHQYHRSPPTFGGGTKLEIK
notes: Used as hybridoma culture supernatant (8.6 µg/ml) or purified antibody (5 µg/ml); also called anti-CLDN4 mouse antibody KM3900
For B1, the binding result was “no binding (tested: 5 µg/ml)” in experiment [1]; “binds” in experiment [2]; “no binding (tested: 5 µg/ml)” in experiment [3]; “binds” in experiment [4]; “no binding (tested: 5 µg/ml)” in experiment [5]; “no binding (tested: 5 µg/ml)” in experiment [6]. For the same molecule, the binding result in experiment [7] is on record as “no binding”.

B2: anti-CLDN4 monoclonal antibody KM3907 produced by hybridoma KM3907 (FERM BP-10885) (antibody, mouse IgG2a, V domains shown)
VH: QVQLQQSGPELVKPGASVKISCKASGYAISTSWMNWVKQRPGKGLEWIGRINPGDGNTNYNGKFMAKATLTADKPSSTAYMQLSSLTSEDSAVYFCTRGDRWSGAMDYWGQGTSVTVSS
VL: GNVLTQSPAIMSASPGEKVTMTCRASSSVSSSYLHWYQQKSGASPKLWIYSTSNLASGVPVRFSGSGSGTSYSLTISSVEAEDAATYYCQQYSGFPLTFGAGTKLELK
For the molecule B2, the binding result in experiment [1] is “no binding (tested: 5 µg/ml)”; in experiment [2] it was “no binding”; in experiment [3], “binds”; in experiment [4], “binds”; in experiment [5] it was “no binding (tested: 5 µg/ml)”; in experiment [6], “no binding (tested: 5 µg/ml)”. Also, the binding result in experiment [7] is recorded as “binds”.
